The target of data set [1] is MeCP2 MBD;histone octamer (Homo sapiens;Homo sapiens, UniProt P51608;P0C0S8;P62807;P68431;P62805 77-167;2-130;2-126;2-136;2-103, |H3.1 C96S;C110A). Kind of data set: EMSA; no competitor DNA; 20 mM HEPES pH 7.5, 75 mM NaCl, 125 mM KCl, 50 uM EDTA, 2.5 mM beta-mercaptoethanol, 5% glycerol, BSA, 1.58 uM 47 bp competitor DNA (nucleosome assays); absent w. (In general: In EMSA bound probe runs differently from free probe, usually more slowly.)

In data set [2] the target is MeCP2 full-length, e2 isoform;histone octamer (Homo sapiens;Homo sapiens, UniProt P51608;P0C0S8;P62807;P68431;P62805 1-486;2-130;2-126;2-136;2-103, |H3.1 C96S;C110A). The data set is described as above.
The target of data set [3] is MeCP2 full-length, e2 isoform;histone octamer (Homo sapiens;, UniProt P51608;P0C0S8;P62807;P68431;P62805 1-486;2-130;2-126;2-136;2-103, |H2B T115C;H3.1 C96S;C110A). Nature of the data set: EMSA; 20 mM HEPES pH 7.5, 75 mM NaCl, 125 mM KCl, 50 uM EDTA, 2.5 mM beta-mercaptoethanol, 5% glycerol, BSA, 1.58 uM 47 bp competitor DNA (nucleosome assays); absent w.
The target in data set [4] is MeCP2 MBD;histone octamer, tailless H3 (Homo sapiens;Homo sapiens, UniProt P51608;P0C0S8;P62807;P68431;P62805 77-167;2-130;2-126;26-136;2-103, |H3.1 del1-24;A25C;C96S;C110A). Nature of the data set: EMSA; H3-tailless histone octamer; no competitor DNA; 20 mM HEPES pH 7.5, 75 mM NaCl, 125 mM KCl, 50 uM EDTA, 2.5 mM beta-mercaptoethanol, 5% glycerol, BSA, 1.58 uM 47 bp competitor DNA (nucleosome assays); absent w.

Data set [5] has as its target MeCP2 full-length, e2 isoform;histone octamer, tailless H3 (Homo sapiens;Homo sapiens, UniProt P51608;P0C0S8;P62807;P68431;P62805 1-486;2-130;2-126;26-136;2-103, |H3.1 del1-24;A25C;C96S;C110A). Described as above.
The target of data set [6] is MeCP2 full-length, e2 isoform;histone octamer, H3Kc27me3 (Homo sapiens;Homo sapiens, UniProt P51608;P0C0S8;P62807;P68431;P62805 1-486;2-130;2-126;2-136;2-103, |H3.1 K27C (trimethyl-lysine analogue, Kc27me3);C96S;C110A). Nature of the data set: EMSA; H3K27me3 histone octamer; no competitor DNA; 20 mM HEPES pH 7.5, 75 mM NaCl, 125 mM KCl, 50 uM EDTA, 2.5 mM beta-mercaptoethanol, 5% glycerol, BSA, 1.58 uM 47 bp competitor DNA (nucleosome assays); absent w.

Data set [7] has as its target MeCP2 MBD;histone octamer, H3Kc27me3 (Homo sapiens;Homo sapiens, UniProt P51608;P0C0S8;P62807;P68431;P62805 77-167;2-130;2-126;2-136;2-103, |H3.1 K27C (trimethyl-lysine analogue, Kc27me3);C96S;C110A). Described as above.
For data set [8], the target named is MeCP2 MBD;histone octamer, acidic patch mutant (Homo sapiens;Homo sapiens, UniProt P51608;P0C0S8;P62807;P68431;P62805 77-167;2-130;2-126;2-136;2-103, |H2A E61A;E91A;E92A;H2B E113A;H3.1 C96S;C110A). Kind of data set: EMSA; acidic patch mutant histone octamer; no competitor DNA; 20 mM HEPES pH 7.5, 75 mM NaCl, 125 mM KCl, 50 uM EDTA, 2.5 mM beta-mercaptoethanol, 5% glycerol, BSA, 1.58 uM 47 bp competitor DNA (nucleosome assays); absent w.

The target in data set [9] is MeCP2 full-length, e2 isoform;histone octamer, acidic patch mutant (Homo sapiens;Homo sapiens, UniProt P51608;P0C0S8;P62807;P68431;P62805 1-486;2-130;2-126;2-136;2-103, |H2A E61A;E91A;E92A;H2B E113A;H3.1 C96S;C110A). The data set is described as above.

Here are results for one molecule from paper PMC13276077.

B1: N601 nucleosome core particle -1 meCpG (nucleosome)
DNA 1: CAGGATGTATATATCTGACACGTGCCTGGAGACTAGGGAGTAATCCCCTTGGCGGTTAAAACGCGGGGGACAGCGCGTACGTGCGTTTAAGCGGTGCTAGAGCTGTCTACGACCAATTGAGCGGCCTCGGCACCGGGATTCTCCA
DNA 2: TGGAGAATCCCGGTGCCGAGGCCGCTCAATTGGTCGTAGACAGCTCTAGCACCGCTTAAACGCACGTACGCGCTGTCCCCCGCGTTTTAACCGCCAAGGGGATTACTCCCTAGTCTCCAGGCACGTGTCAGATATATACATCCTG
modifications: meCpG at -1
The term Kd denotes the constant that tells how readily two partners part at equilibrium. As for B1, the Kd in [1] is 50.7 nM; in [2], 44.2 nM; in data set [4], 35.5 nM; in data set [5], 29.2 nM; in data set [6], 56.8 nM; in [7], 85.5 nM. Also, the Kd turned out to be 51.5 nM in data set [8] and 49.7 nM in [9]. The binding result in [3] is on record as “no binding”.
